Measured values reported in publication PMC10397247.

How the values were obtained:
4H895-AA = target: T1, 4H895-AA; assay: two-hybrid library CCmax; settings: mean of both orientations;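 note: natural log of median RNA to DNA barcode read ratio; higher means stronger binding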
T1 chain: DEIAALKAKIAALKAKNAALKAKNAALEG

4H_APH = target: T2, 4H_APH; assay: two-hybrid library CCmax; settings: mean of both orientations;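 note: natural log of median RNA to DNA barcode read ratio; higher means stronger binding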
T2 chain: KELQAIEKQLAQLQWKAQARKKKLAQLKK

4H3365-AA = target: T3, 4H3365-AA; assay: two-hybrid library CCmax;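 note: natural log of median RNA to DNA barcode read ratio; higher means stronger binding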
T3 chain: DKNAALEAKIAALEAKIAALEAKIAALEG

GCN2_T = assay: two-hybrid library CCmax;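 note: natural log of median RNA to DNA barcode read ratio; higher means stronger binding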
4H3782-AA = target: T4, 4H3782-AA; assay: two-hybrid library CCmax; settings: mean of both orientations;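 note: natural log of median RNA to DNA barcode read ratio; higher means stronger binding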
T4 chain: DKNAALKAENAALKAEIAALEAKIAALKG

4H_GCN4 = assay: two-hybrid library CCmax;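 note: natural log of median RNA to DNA barcode read ratio; higher means stronger binding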
Chain of 4H_GCN4 (chain, as listed by the source): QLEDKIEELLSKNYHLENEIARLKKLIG

4H465-AA = target: T5, 4H465-AA; assay: two-hybrid library CCmax; settings: mean of both orientations
T5 chain: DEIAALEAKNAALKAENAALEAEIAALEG

4H486-AA = target: T6, 4H486-AA; assay: two-hybrid library CCmax; settings: mean of both orientations
T6 chain: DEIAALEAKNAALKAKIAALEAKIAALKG

P3-AA = target: T7, P3-AA; assay: two-hybrid library CCmax
T7 chain: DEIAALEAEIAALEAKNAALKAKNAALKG

4H3651-AA = target: T8, 4H3651-AA; assay: two-hybrid library CCmax; settings: mean of both orientations
T8 chain: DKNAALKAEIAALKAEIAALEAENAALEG

4H3705-AA = target: T9, 4H3705-AA; assay: two-hybrid library CCmax; settings: mean of both orientations
T9 chain: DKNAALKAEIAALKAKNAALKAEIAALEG

4H58-AA = target: T10, 4H58-AA; assay: two-hybrid library CCmax; settings: mean of both orientations
T10 chain: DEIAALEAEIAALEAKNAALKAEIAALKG

4H535-AA = target: T11, 4H535-AA; assay: two-hybrid library CCmax; settings: mean of both orientations
T11 chain: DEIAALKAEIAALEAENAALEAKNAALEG

4H355-AA = target: T12, 4H355-AA; assay: two-hybrid library CCmax; settings: mean of both orientations
T12 chain: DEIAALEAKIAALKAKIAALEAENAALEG

4H_BCR = target: T13, 4H_BCR; assay: two-hybrid library CCmax; settings: mean of both orientations
T13 chain: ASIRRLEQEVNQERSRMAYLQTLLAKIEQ

4H575-bA = target: T14, 4H575-bA; assay: two-hybrid library CCNG1
T14 chain: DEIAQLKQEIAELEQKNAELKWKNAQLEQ

4H797-bA = target: T15, 4H797-bA; assay: two-hybrid library CCNG1
T15 chain: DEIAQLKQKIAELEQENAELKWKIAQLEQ

4H4001-bA = target: T16, 4H4001-bA; assay: two-hybrid library CCNG1
T16 chain: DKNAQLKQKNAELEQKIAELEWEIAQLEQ

4H687-bA = target: T17, 4H687-bA; assay: two-hybrid library CCNG1
T17 chain: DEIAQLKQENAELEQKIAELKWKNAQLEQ

4H908-bA = target: T18, 4H908-bA; assay: two-hybrid library CCNG1
T18 chain: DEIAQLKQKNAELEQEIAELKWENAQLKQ

4H883-bA = target: T19, 4H883-bA; assay: two-hybrid library CCNG1
T19 chain: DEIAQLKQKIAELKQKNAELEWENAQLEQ

4H754-bA = target: T20, 4H754-bA; assay: two-hybrid library CCNG1
T20 chain: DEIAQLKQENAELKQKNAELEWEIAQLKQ

4H717-bA = target: T21, 4H717-bA; assay: two-hybrid library CCNG1
T21 chain: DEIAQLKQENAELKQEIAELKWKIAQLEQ

4H454-bA = target: T22, 4H454-bA; assay: two-hybrid library CCNG1
T22 chain: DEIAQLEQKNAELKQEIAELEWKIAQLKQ

4H331-bA = target: T23, 4H331-bA; assay: two-hybrid library CCNG1
T23 chain: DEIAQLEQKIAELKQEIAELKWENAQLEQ

4H967-bA = target: T24, 4H967-bA; assay: two-hybrid library CCNG1
T24 chain: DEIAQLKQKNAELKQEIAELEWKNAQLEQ

4H457-bA = target: T25, 4H457-bA; assay: two-hybrid library CCNG1
T25 chain: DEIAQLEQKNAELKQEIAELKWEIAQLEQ

4H3926-bA = target: T26, 4H3926-bA; assay: two-hybrid library CCNG1
T26 chain: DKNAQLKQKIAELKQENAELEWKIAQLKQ

4H3782-bA = target: T27, 4H3782-bA; assay: two-hybrid library CCNG1
T27 chain: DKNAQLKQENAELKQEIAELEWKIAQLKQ

4H4073-bA = target: T28, 4H4073-bA; assay: two-hybrid library CCNG1
T28 chain: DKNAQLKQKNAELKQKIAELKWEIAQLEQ

4H3112-bA = target: T29, 4H3112-bA; assay: two-hybrid library CCNG1
T29 chain: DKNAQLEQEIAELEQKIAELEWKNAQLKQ

4H3185-bA = target: T30, 4H3185-bA; assay: two-hybrid library CCNG1
T30 chain: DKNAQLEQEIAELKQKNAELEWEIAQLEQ

4H968-bA = target: T31, 4H968-bA; assay: two-hybrid library CCNG1
T31 chain: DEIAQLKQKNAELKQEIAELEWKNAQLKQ

4H338-bA = target: T32, 4H338-bA; assay: two-hybrid library CCNG1
T32 chain: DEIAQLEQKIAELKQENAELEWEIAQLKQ

4H346-bA = target: T33, 4H346-bA; assay: two-hybrid library CCNG1
T33 chain: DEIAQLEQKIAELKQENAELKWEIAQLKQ

4H780-bA = target: T34, 4H780-bA; assay: two-hybrid library CCNG1
T34 chain: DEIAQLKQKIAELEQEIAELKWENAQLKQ

4H683-bA = target: T35, 4H683-bA; assay: two-hybrid library CCNG1
T35 chain: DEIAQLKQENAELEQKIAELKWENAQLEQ

4H918-bA = target: T36, 4H918-bA; assay: two-hybrid library CCNG1
T36 chain: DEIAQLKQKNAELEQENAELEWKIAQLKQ

4H855-bA = target: T37, 4H855-bA; assay: two-hybrid library CCNG1
T37 chain: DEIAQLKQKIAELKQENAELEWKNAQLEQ

4H3855-bA = target: T38, 4H3855-bA; assay: two-hybrid library CCNG1
T38 chain: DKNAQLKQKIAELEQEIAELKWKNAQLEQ

4H568-bA = target: T39, 4H568-bA; assay: two-hybrid library CCNG1
T39 chain: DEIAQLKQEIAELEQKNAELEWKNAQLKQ

4H72-bA = target: T40, 4H72-bA; assay: two-hybrid library CCNG1
T40 chain: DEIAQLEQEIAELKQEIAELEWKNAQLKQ

4H607-bA = target: T41, 4H607-bA; assay: two-hybrid library CCNG1
T41 chain: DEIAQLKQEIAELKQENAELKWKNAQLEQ

4H953-bA = target: T42, 4H953-bA; assay: two-hybrid library CCNG1
T42 chain: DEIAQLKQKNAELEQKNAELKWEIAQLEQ

4H3427-bA = target: T43, 4H3427-bA; assay: two-hybrid library CCNG1
T43 chain: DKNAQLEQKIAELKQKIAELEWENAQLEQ

4H3354-bA = target: T44, 4H3354-bA; assay: two-hybrid library CCNG1
T44 chain: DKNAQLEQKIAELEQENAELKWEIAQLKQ

O9-bN = target: T45, O9-bN; assay: two-hybrid library CCNG1
T45 chain: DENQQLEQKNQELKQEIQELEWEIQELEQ

O5-bN = target: T46, O5-bN; assay: two-hybrid library CCNG1
T46 chain: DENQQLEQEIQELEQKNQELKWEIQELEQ

O7-bN = target: T47, O7-bN; assay: two-hybrid library CCNG1
T47 chain: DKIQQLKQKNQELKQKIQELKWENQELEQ

O6-bN = target: T48, O6-bN; assay: two-hybrid library CCNG1
T48 chain: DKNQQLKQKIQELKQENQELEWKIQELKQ

O4-bN = target: T49, O4-bN; assay: two-hybrid library CCNG1
T49 chain: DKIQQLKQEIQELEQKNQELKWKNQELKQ

O8-bN = target: T50, O8-bN; assay: two-hybrid library CCNG1
T50 chain: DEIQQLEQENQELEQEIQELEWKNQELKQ

4H591-bH = target: T51, 4H591-bH; assay: two-hybrid library CCNG1
T51 chain: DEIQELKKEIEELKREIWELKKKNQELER

O2-bN = target: T52, O2-bN; assay: two-hybrid library CCNG1
T52 chain: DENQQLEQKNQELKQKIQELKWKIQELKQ

4H3628-bH = target: T53, 4H3628-bH; assay: two-hybrid library CCNG1
T53 chain: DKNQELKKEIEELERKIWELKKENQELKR

4H626-bH = target: T54, 4H626-bH; assay: two-hybrid library CCNG1
T54 chain: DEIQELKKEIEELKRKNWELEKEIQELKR

4H3497-bH = target: T55, 4H3497-bH; assay: two-hybrid library CCNG1
T55 chain: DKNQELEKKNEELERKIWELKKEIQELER

4H906-bH = target: T56, 4H906-bH; assay: two-hybrid library CCNG1
T56 chain: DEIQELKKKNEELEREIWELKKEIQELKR

4H3613-bH = target: T57, 4H3613-bH; assay: two-hybrid library CCNG1
T57 chain: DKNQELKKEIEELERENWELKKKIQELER

4H3926-bH = target: T58, 4H3926-bH; assay: two-hybrid library CCNG1
T58 chain: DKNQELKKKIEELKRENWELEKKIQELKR

4H3462-bH = target: T59, 4H3462-bH; assay: two-hybrid library CCNG1
T59 chain: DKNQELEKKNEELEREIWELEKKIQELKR

DKNAALEAKIAALEAKIAALEAKIAALEG [4H3365-AA]
interaction score (4H895-AA): -1.35
interaction score (4H_APH): -1.21
interaction score (4H3365-AA): 1.76
interaction score (GCN2_T): -1.79
interaction score (4H3782-AA): -1.46
interaction score (4H_GCN4): -1.72
interaction score (4H465-AA): -1.05
interaction score (4H486-AA): -1.2
interaction score (P3-AA): -2.3
interaction score (4H3651-AA): -0.441
interaction score (4H3705-AA): -1.25
interaction score (4H58-AA): -1.67
interaction score (4H535-AA): -1.33
interaction score (4H355-AA): -0.823
interaction score (4H_BCR): -1.47

DKNAQLEQEIAELEQKIAELEWKNAQLKQ [4H3112-bA]
interaction score (4H575-bA): -0.587
interaction score (4H797-bA): 0.364
interaction score (4H4001-bA): -0.41
interaction score (4H687-bA): -1.13
interaction score (4H908-bA): 0.0545
interaction score (4H883-bA): 0.791
interaction score (4H754-bA): -0.483
interaction score (4H717-bA): 0.267
interaction score (4H454-bA): -1.72
interaction score (4H331-bA): 0.496
interaction score (4H967-bA): -0.715
interaction score (4H457-bA): -0.509
interaction score (4H3926-bA): -0.342
interaction score (4H3782-bA): -0.731
interaction score (4H4073-bA): 1.32
interaction score (4H3112-bA): 1.17
interaction score (4H3185-bA): 0.447
interaction score (4H968-bA): -1.09
interaction score (4H338-bA): -0.842
interaction score (4H346-bA): -0.0408
interaction score (4H780-bA): -0.567
interaction score (4H683-bA): -0.379
interaction score (4H918-bA): -1.88
interaction score (4H855-bA): 1.01
interaction score (4H3855-bA): -0.227
interaction score (4H568-bA): -1.31
interaction score (4H72-bA): -0.233
interaction score (4H607-bA): -0.643
interaction score (4H953-bA): -0.984
interaction score (4H3427-bA): 1.55
interaction score (4H3354-bA): 0.000615

DKIQQLKQEIQELEQKNQELKWKNQELKQ [O4-bN]
interaction score (O9-bN): -0.542
interaction score (O5-bN): -0.492
interaction score (O7-bN): -0.226
interaction score (O6-bN): 0.639
interaction score (O4-bN): -0.666
interaction score (O8-bN): -0.553

DKNQELEKKNEELEREIWELEKKIQELKR [4H3462-bH]
interaction score (4H591-bH): -0.285
interaction score (O2-bN): 1.13
interaction score (4H3628-bH): 0.726
interaction score (4H626-bH): -0.748
interaction score (4H3497-bH): 1.43
interaction score (4H906-bH): 0.0503
interaction score (4H3613-bH): -0.585
interaction score (4H3926-bH): 0.869
interaction score (4H3462-bH): 0.634
